Reference: patent US20090117593A1, “T. Cruzi-derived neurotrophic agents and methods of use therefor” (Tufts University, priority 2006, published 2009)
“Also recorded” adds a separate entry of the source. Like-named read-outs stand apart in the source and are kept apart here.

Experiments:
IL-6 [1] = assay: IL-6 secretion by PBMC (ELISA); type: cell-based, human; settings: 24 hours
Experimental: (§1) Primary cultures of human intestinal microvascular endothelial cells (HIMEC) isolated from normal jejunal mucosa/submucosal tissue were prepared as described (Strong et al., Gastroenterology 114:1244-1256 (1998)). The HIMEC were cultured in fibronectin-coated plasticware in MCDB medium (Sigma) supplemented with 20% FBS, 90 μg/ml heparin and 50 μg/ml endothelial cell growth factor (Sigma). T-24 cells (ATCC Accession No. HTB-4) were cultured in M199 medium supplemented with 10% FBS. PBMC were purified by Ficoll-Paque gradient as described (Current Protocols in Immunology, pp 7.1.1-7.1.2). Vero cells (ATCC Accession No. CCL-81) were grown in RPMI medium with 5% Nu serum and infected with the Silvio X-10/4 of T. cruzi as described previously (Chuenkova et al., J. Exp. Med. 181:1693-1703 (1995)).
(§2) Endothelial cells and T-24 cells were plated on 24-well plates at a density of 1×10^3 cells/well, while peripheral blood mononuclear cells (PBMC) were plated in the similar wells at 1×10^6/well. Triplicat cultures of cells were incubated test agents for a predetermined amount of time. […] Cytokines and chemokines released in the culture supernatants were measured by ELISA assay following the instructions of the manufacturer (Endogen). The cytokines tested were IL-1β, IL-4, IL-8, […], IL-12, IFN-γ, TNF-α, and the chemokines RANTES and MCP-1. Negative controls were cells incubated in medium containing polymixin B at 10 μg/ml, and positive controls were cells incubated with bacterial LPS at the low ng/ml range (for PBMC or HIMEC) or in the μg/ml range for carcinoma T-24 cells. In some experiments, IL-1β or TNFα were used as positive control for cytokine release.
TR peptides (Table 2) were synthesized at the Tufts Synthesis Facility (Boston, Mass.). Each peptide was purified by HPLC, and the number of amino acids and molecular weight of each peptide verified by mass spectrometry. Peptides were dissolved in growth medium (10% FCS in RPMI) and added at various concentrations to 1×10^6 PBMC/well in 24-well plates. After 24 hours, IL-6 was assayed by ELISA in the conditioned supernatants.

Akt kinase = assay: Immunodetection and kinase assay of activated Akt in Schwann cells; settings: Western blot P-Akt (Ser473)
Experimental: Schwann cells, grown in 10% FCS to 70% confluency in 6-well plates, were switched to DMEM containing 0.1% FCS for 48 hours to reduce basal Akt phosphorylation. Then the cells were placed in serum-free DMEM medium for 2 hours and challenged with TS, CD or other test factors for predetermined periods of time. When the PI-3 kinase inhibitor LY294002 (Sigma) was used, the inhibitor was added to the serum-starved cells 30 minutes before challenge with TS or CD. Cell samples were lysed with lysis buffer (20 mM Tris, pH 7.5, 150 mM NaCl, 1 mM EDTA, 1% Triton X-100 (t-Octylphenoxypolyethoxyethanol), 2.5 mM sodium pyrophosphate, 1 mM glycerophosphate, 1 mM Na3VO4, 1 μg/ml leupeptin and 1 mM Phenymethylsulfonyl fluoride (PMSF)). Samples (40 μg) were run on 10% SDS-Page, blotted to nitrocellulose paper and analyzed by Western (immuno) blot with monoclonal antibody specific for P-Ser473 of Akt (New England Biolabs). Reaction was visualized by chemiluminescence using the ECL kit (New England Nuclear).
Enzymatic activity of Akt kinase was assessed using the synthetic substrate GSK-3α-fusion protein (Cell Signaling Technology, Beverly, Mass.), according to the protocol provided by Cell Signaling Technology. In short, lysates of Schwann cells subjected to various treatments were immunoprecipitated with Akt antibody coupled to agarose beads, and the immunoprecipitates incubated with GSK-3α-fusion protein as the substrate for Akt phosphorylation, in the presence of 200 μM ATP. Phosphorylation of GSK-3 fusion protein was detected by Western blot using phospho-GSK-3αβ (Ser21/9)-specific antibody (Cell Signaling Technology). The reaction product was identified by chemiluminescence using the ECL kit (New England Nuclear).

human Schwann cells = assay: Serum withdrawal-induced apoptosis of Schwann cells (DAPI); type: cell-based; settings: serum-free DMEM, 24-72 hours
PC12 cells [2] = type: cell-based; settings: serum-free RPMI/0.2% BSA, collagen coated dishes, 16-17 hours
IL-6 [3] = assay: IL-6 secretion by T-24 carcinoma cells (ELISA); type: cell-based, human; settings: 24 hours
Experimental: as §1, §2

neuroblastoma N18 cells = assay: Neurite outgrowth assay in N18 cells; type: cell-based; settings: soluble or immobilized on plastic (500 μg/ml coating), 17 hours
Experimental: 96-well microtiter plates were coated overnight at 4° C. with the TS or peptides or fragments thereof, or with control proteins laminin (Ln) or bovine serum albumin (BSA) at 500 μg/ml. After removing the compounds, the plates were further incubated with 1% BSA for 1 hour at room temperature and immediately used as substratum for PC12 or N18 (Prasad, K., Biol. Rev. Camb. Philos. Soc., 66:431-451 (1991)) cells in serum-free RPMI/0.2% BSA. Neurite outgrowth was measured using a phase-contrast microscope 17 hours later.

PC12 cells [4] = assay: Protection of PC12 cells from apoptosis induced by trophic factor withdrawal (DAPI, TUNEL); type: cell-based
Excerpt: PC12 cells were obtained from ATCC (Manassas, Va. (Accession No. CRL-1721)) and cultured on collagen-coated dishes in RPMI 1640 supplemented with 10% horse serum and 5% fetal bovine serum (Greene, L., and Tishler, A., Proc. Natl. Acad. Sci. USA, 73:2424-2428 (1976)). For differentiation and survival experiments, cells were washed three times in serum-free RPMI/0.2% BSA, plated in the same medium in collagen-coated plastic dishes at 2×10^5/ml, without and with growth factors, TS, recombinant proteins, synthetic peptides, for the time and concentrations indicated in the Figures.
Cell staining with 4,6-diamino-2-phenylindole (DAPI). Cells were fixed with 4% formaldehyde in PBS for 5 minutes, washed with PBS, stained with 10 μg/ml DAPI (Sigma) for 2 minutes, washed with PBS, and visualized under UV light using a fluorescent microscope. About 300-400 cells were examined under the microscope to determine the percentage of apoptotic cells.
Cell DNA nick end labeling (TUNEL) (Gavrieli, Y. et al., J. Cell. Biol., 119:493-501 (1992)) assay was performed using a kit purchased from Boehringer Mannheim as described by the manufacturer.
Protection against apoptosis of PC12 cells in serum-free medium containing a test agent (agent N) (e.g., protection induced by TS, TS fragments, NGF or other growth factors), was calculated by the formula: 100%−[(apoptosis(%) of cells kept in RPMI containing test agent N÷apoptosis (%) of cells kept in RPMI)×100%]. Testing the effect of Wortmannin (Sigma) and LY294002 (Sigma) in inhibiting the neuroprotection of TS was performed following the protocol described by others (Yao, R., and Cooper, G., Science, 267:2003-2006 (1995); D'Mello, et al., J. Neurosci., 17:1548-1560 (1997)). In brief, PC12 cells were switched from growth medium to RPMI without and with TS or various other growth factors. After 24 hours, Wortmannin and LY294002 were added to the cultures. After another 24 hours, cells were examined for apoptosis by the DAPI assay, as above.

Trans-sialidase assay = type: biochemical
Experimental: The trans-sialidase assay was performed as described (Scudder, P. et al., J. Biol. Chem., 268:9886-9891 (1993)) with slight modifications. Various amounts of intact enzyme or enzyme fragments were added to 50 mM PBS, Ph 7.2, containing 15% fetal calf serum and […] of [^14C]N-acetyllactosamine (4×10^5 dpm), 50 μg BSA and 0.02% NaN3 in a volume of 60 μl. After incubation for a predetermined amount of time at room temperature, the reaction mixture was diluted to 1.0 ml with distilled water and applied to a column containing 1.0 ml Q-Sepharose equilibrated with water. Sialylated product was eluted with 1 M NaCl and quantified by scintillation counting.
TS enzymatic activity was measured by the sialylation of the acceptor ^14C-labeled N-acetyllactosamine on anion exchange resins (Scudder, P. et al., J. Biol. Chem. 268:9886-9891 (1993)). Recombinant TSA-1, was expressed on insect sf9 cells and purified from serum-free medium by ion exchange chromatography (monoQ) and preparative SDS-PAGE (Wrightsman, R. A. et al., J. Immunol., 153:3148-3154 (1994).

Row | Molecule | IL-6 secretion by PBMC (IL-6 [1]) | neurite outgrowth in PC12 cells (PC12 cells [2]) | IL-6 secretion by T-24 cells (IL-6 [3]) | neurite outgrowth in N18 cells (neuroblastoma N18 cells) | trans-sialidase (enzymatic) activity (Trans-sialidase assay) | further results
1 | LTR: recombinant full-length C-terminal long tandem repeat of TS clone 7F (protein) NRRQLNTEEIRTLFLSQDLIGTEAHMDSSSDSSAHSTPSTPADSSAHSTPSTPVDSSAHSTPSTPADSSAHGTPSTPVDSSAHGTPSTPADSSAHGTPSTPVDSSAHSTPSTPVDSSAHSTPSTPVDSSAHGAPSTPADSSAHGTPSTPVDSSAHGTPSTPADSSAHSTPSTPADSSAHSTPSTPADSSAHSTPSTPVDSSAHGTPSTPADSSAHSTPSTPADSSAHGTPSTPVDSSAHSTPSTPVDSSAHGTPSTPVDSSAHSTPSTPVDSSAHGTPSTPVDSSAHSTPSTPADSSAHSTPSTPADSSAHGTPSTPVDSSAHSTPSTPADSSAHSTPSTPVDSSAHSTPSTPADSSAHGTPSTPVDSSAHGTPSTPADSSAHSTPSTPADSSAHSTPSTPADSSAHSTPSTPVDSSAHSTPSTPADSSAHSTPSTPADSSAHSTPSTPADSSAHSTPSTPVDSSAHSTPSTPADSSAHGTPSTPADSSAHSTPSTPVDSSAHSTPSTPADSSAHGTPSTPADSSAHSTPSTPADSSAHGTPSTPADSSAHSTPSTPAGSSANGTVLILPDGAALSTFSGGGLLLCACALLLHVFFMAVF | upregulated IL-6 release | did not induce neurite outgrowth | effectively induced release of IL-6 in a dose-dependent manner; also recorded: dose dependent secretion of IL-6 | did not induce neurite outgrowth | – | phosphorylation (activation) of Akt kinase in Schwann cells (Akt kinase): nor activate PI3K/Akt signaling; inhibition of serum withdrawal-induced apoptosis of Schwann cells (human Schwann cells): did not promote Schwann cell survival
2 | NGF: Mouse 7S nerve growth factor (protein) SSTHPVFHMGEFSVCDSVSVWVGDKTTATDIKGKEVTVLAEVNINNSVFRQYFFETKCRASNPVESGCRGIDSKHWNSYCTTTHTFVKALTTDEKQAAWRFIRIDTACVCVLSRKATRRG | – | induces neurite outgrowth | – | – | – | PC12 cells protected from apoptotic death (PC12 cells [4]; NGF at 0.5 ng/ml): 18%
3 | cruzipain: T. cruzi protease (protein, UniProt P25779 123-467, looked up) Cruzipain: APAAVDWRARGAVTAVKDQGQCGSCWAFSAIGNVECQWFLAGHPLTNLSEQMLVSCDKTDSGCSGGLMNNAFEWIVQENNGAVYTEDSYPYASGEGISPPCTTSGHTVGATITGHVELPQDEAQIAAWLAVNGPVAVAVDASSWMTYTGGVMTSCVSEQLDHGVLLVGYNDSAAVPYWIIKNSWTTQWGEEGYIRIAKGSNQCLVKEEASSAVVGGPGPTPEPTTTTTTSAPGPSPSYFVQMSCTDAACIVGCENVTLPTGQCLLTTSGVSAIVTCGAETLTEEVFLTSTHCSGPSVRSSVPLNKCNRLLRGSVEFFCGSSSSGRLADVDRQRRHQPYHSRHRRL | – | did not induce neurite extension | – | – | – | neurite outgrowth in PC12 cells (PC12 cells [2]; listed as cruzipan): ineffective
4 | TS-F-47: recombinant fragment, amino acid residues 79-666 of SEQ ID NO:34 (protein, listed as Trypanosoma cruzi) GDARDWDILLAVGEVTKSTAGGKITASIKWGSPVSLKKFFPAEMEGMHTNQFLGGAGVAIVASNGNLVYPVQVTNKRKQVFSKIFYSEDDGKTWKFGKGRSDFGCSEPVALEWEGKLIINTRVDWKRRLVYESSDMEKPWVEAVGTVSRVWGPSPKSNQPGSQTSFTAVTIEGMRVMLFTHPLNFKGRCVRDRLNLWLTDNQRIYNVGQVSIGDENSAYSSVLYKDDKLYCLHEINTDEVYSLVFARLVGELRIIKSVLRSWKNWTATCPAFAPLLIQPLRRQRVVVVPLSPRLVLLAFCRQRLPKRMGGSYRCVNASTANAERVRNGLKFAGVGGGALWPVSQQGQNQRYRFANHAFTLVASVTIHEAPRAASPLLGASLDSSGGKKLLGLSYDEKHQWQPIYGSTPVTPTGSWETGKRYHLVLTMANKIGSVYIDGELLEGSGQTVVPDGRTPDISHFYVGGYKRSDMPTISHVTVNNVLLYNRRQLNTEEIRTLFLSQDLIGTEAHMDSSSDSSAHSTPSTPADSSAHSTPSTPVDSSAHSTPSTPADSSAHGTPSTPVDSSAHGTPSTPADSSAHGTPSTPVDS | – | – | – | as effective as the native enzyme in stimulating neurite outgrowth; also recorded: active both in stimulating neurite outgrowth | enzymatically inactive | protection of PC12 cells from apoptosis induced by trophic factor withdrawal (PC12 cells [4]; serum-free RPMI-1640/0.2% BSA, 17 hours, DAPI or TUNEL): active
5 | TS-H32 (protein, listed as Trypanosoma cruzi) KKKQVFSKIFYSEDDGKTWKFGEGRSAFGCSEAVALEWEGKLIINTRVDYRRRLVYESSDMGNTWLEAVGTLSRVWGPSPKSNQPGSQSSFTAVTIEGMRVMLFTHPLNFKGRWLRDRLNLWLTDNQRIYNVGQVSIGDENSAHSSVLYKDDKLYCLHEINSNEVYSLVFARLVGELRIIKSVLQSWKNWDSHLSSICTP | stimulating IL-6 secretion | – | stimulating IL-6 secretion | – | enzymatically-inactive | –
6 | TS-Cat-47: recombinant fragment consisting of amino acid residues 79-415 of TS (SEQ ID NO:2) (protein, listed as Trypanosoma cruzi) MVAIADARYDTSNDNSLIDTVAKYSVDDGETWETQIAIKNSRVSSVSRVVDPTVIVKGNKLYVLVGSYYSSRSYWSSHGDARDWDILLAVGEVTKSTAGGKITASIKWGSPVSLKKFFPAEMEGMHTNQFLGGAGVAIVASNGNLVYPVQVTNKKKQVFSKIFYSEDDGKTWKFGKGRSDFGCSEPVALEWEGKLIINTRVDWKRRLVYESSDMEKPWVEAVGTVSRVWGPSPKSNQPGSQSSFTAVTIEGMRVMLFTHPLNFKGRWLRDRLNLWLTDNQRIYNVGQVSIGDENSAYSSVLYKDDKLYCLHEINTDEVYSLVFARLVGELRIIKSVL | – | – | – | inactive in stimulating neurite outgrowth; also recorded: did not promote neurite outgrowth | – | –
